Measurements reported in publication PMC3465764.

Substrate: NC(=O)c1cnccn1
Test: steady-state enzyme kinetics
Assay type: biochemical, Acinetobacter baumannii

B1: AbPncA (Acinetobacter baumannii ATCC 19606 = CIP 70.34 = JCM 6841) (protein)
chain: MKMNKQPQNSALVVVDVQNGFTPGGNLAVADADTIIPTINQLAGCFENVVLTQDWHPDNHISFAANHPGKQPFETIELDYGSQVLWPKHCIQGTHDAEFHPDLNIPTAQLIIRKGFHAHIDSYSAFMEADHTTMTGLTGYLKERGIDTVYVVGIATDFCVAWTALDAVKQGFKTLVIEDACKGIDLNGSLEQAWQTMQQQGVVRIQSTDLLNEC
Q: With B1 as the protein, how does the Km read?
A: Its Km is 106.9 µM.
